# Key:
# [1] = target: Grb2 SH2 (UniProt P62993); experiment: SH2 binding enrichment of the phosphorylated peptide, bacterial display (enrichment ratio); higher = better substrate or ligand; peptides without Tyr show the background
# [2] = target: SHP2-C SH2; experiment: as above
# [3] = target: c-Src SH2; experiment: as above
# [4] = test system: c-Src; experiment: phosphorylation enrichment, bacterial display (enrichment ratio); higher = better substrate or ligand; peptides without Tyr show the background
# [5] = target: Fes (UniProt P07332); experiment: as above
# Fes, sequence (P07332 whole entry, looked up): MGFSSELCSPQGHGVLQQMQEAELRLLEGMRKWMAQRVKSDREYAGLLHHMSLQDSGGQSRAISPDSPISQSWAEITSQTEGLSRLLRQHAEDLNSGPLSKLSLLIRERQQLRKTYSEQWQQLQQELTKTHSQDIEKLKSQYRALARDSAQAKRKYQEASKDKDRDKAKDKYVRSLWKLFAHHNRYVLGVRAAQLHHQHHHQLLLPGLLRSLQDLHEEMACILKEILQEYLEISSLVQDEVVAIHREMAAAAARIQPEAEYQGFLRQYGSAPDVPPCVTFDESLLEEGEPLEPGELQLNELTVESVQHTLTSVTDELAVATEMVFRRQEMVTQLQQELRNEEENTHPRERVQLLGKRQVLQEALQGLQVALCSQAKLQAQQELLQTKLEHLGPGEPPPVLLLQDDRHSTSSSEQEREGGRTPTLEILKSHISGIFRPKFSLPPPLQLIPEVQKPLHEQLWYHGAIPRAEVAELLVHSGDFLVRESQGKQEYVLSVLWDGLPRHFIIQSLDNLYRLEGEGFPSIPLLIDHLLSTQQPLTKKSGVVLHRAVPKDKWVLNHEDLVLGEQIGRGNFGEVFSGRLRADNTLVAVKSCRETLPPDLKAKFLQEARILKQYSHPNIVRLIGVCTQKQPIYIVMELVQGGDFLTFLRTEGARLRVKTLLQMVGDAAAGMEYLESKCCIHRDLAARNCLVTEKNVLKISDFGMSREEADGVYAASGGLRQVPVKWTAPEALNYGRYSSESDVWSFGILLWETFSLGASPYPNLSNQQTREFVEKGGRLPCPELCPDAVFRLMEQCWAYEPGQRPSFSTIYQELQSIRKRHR
# [6] = target: EPHB2 (UniProt P29323); experiment: as above
# EPHB2, sequence (P29323 whole entry, looked up): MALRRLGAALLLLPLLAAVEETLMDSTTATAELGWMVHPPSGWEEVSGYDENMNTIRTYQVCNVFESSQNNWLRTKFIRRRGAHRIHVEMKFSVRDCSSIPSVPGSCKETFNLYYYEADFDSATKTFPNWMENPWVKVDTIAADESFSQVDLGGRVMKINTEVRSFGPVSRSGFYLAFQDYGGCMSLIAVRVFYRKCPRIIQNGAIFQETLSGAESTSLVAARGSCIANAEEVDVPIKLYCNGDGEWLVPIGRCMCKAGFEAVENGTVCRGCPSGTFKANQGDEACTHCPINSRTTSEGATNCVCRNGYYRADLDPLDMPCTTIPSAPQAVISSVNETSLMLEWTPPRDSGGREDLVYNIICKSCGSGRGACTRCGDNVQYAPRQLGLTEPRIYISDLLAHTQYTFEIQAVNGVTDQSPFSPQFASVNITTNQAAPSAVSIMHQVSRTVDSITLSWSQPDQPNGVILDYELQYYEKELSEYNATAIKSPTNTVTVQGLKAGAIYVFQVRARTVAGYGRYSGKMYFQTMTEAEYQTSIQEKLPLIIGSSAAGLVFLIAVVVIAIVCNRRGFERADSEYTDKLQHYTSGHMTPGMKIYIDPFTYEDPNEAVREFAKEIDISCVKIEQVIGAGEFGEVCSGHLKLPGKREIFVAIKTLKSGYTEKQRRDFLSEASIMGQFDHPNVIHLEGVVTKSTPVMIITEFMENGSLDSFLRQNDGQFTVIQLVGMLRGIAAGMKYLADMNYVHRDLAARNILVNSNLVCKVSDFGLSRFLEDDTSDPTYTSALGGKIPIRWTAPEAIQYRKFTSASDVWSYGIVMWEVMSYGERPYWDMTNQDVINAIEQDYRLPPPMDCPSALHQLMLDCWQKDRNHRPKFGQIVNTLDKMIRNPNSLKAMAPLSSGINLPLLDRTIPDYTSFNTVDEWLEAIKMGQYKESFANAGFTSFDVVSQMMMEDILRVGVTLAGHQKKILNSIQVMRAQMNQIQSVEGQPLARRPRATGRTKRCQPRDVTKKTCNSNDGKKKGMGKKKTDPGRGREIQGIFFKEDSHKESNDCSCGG
# [7] = target: Jak2 (UniProt O60674); experiment: as above
# [8] = target: Hck (UniProt P08631); experiment: as above
# Hck, sequence (P08631 whole entry, looked up): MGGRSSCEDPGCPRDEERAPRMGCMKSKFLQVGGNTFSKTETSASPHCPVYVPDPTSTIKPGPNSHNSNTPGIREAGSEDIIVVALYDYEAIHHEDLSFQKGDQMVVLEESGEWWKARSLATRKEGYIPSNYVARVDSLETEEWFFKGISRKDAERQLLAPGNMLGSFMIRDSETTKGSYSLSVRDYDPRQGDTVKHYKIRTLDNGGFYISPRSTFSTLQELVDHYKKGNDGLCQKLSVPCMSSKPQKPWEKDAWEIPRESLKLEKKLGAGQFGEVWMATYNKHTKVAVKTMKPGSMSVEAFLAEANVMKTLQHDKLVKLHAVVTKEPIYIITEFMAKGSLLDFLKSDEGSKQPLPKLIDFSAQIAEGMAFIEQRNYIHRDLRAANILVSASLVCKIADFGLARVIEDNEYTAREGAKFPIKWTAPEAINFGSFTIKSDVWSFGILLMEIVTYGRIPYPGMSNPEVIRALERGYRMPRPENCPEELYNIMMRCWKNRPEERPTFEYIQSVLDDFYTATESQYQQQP
# [9] = target: Fyn (UniProt P06241); experiment: as above
# Fyn, sequence (P06241 whole entry, looked up): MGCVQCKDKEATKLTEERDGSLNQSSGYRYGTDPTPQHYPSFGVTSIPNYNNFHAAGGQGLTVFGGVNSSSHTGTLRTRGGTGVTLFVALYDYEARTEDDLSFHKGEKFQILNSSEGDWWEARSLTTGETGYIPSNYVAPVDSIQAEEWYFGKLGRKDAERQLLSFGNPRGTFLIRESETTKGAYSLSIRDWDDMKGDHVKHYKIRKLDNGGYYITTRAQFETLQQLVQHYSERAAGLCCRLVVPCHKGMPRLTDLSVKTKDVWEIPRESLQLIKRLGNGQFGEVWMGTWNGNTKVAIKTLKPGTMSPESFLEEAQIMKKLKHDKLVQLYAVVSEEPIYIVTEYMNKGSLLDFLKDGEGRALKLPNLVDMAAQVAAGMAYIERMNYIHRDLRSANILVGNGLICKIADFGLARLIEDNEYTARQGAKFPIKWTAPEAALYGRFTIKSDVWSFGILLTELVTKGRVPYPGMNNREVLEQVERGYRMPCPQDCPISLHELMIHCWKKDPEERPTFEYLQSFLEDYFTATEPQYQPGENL
# [10] = test system: AncSZ; experiment: as above
# [11] = test system: Fer (mouse); experiment: as above
# [12] = target: MERTK (UniProt Q12866); experiment: as above
# [13] = target: EPHB1 (UniProt P54762); experiment: as above
# [14] = target: FGFR3 (UniProt P22607); experiment: as above
# FGFR3, sequence (P22607 whole entry, looked up): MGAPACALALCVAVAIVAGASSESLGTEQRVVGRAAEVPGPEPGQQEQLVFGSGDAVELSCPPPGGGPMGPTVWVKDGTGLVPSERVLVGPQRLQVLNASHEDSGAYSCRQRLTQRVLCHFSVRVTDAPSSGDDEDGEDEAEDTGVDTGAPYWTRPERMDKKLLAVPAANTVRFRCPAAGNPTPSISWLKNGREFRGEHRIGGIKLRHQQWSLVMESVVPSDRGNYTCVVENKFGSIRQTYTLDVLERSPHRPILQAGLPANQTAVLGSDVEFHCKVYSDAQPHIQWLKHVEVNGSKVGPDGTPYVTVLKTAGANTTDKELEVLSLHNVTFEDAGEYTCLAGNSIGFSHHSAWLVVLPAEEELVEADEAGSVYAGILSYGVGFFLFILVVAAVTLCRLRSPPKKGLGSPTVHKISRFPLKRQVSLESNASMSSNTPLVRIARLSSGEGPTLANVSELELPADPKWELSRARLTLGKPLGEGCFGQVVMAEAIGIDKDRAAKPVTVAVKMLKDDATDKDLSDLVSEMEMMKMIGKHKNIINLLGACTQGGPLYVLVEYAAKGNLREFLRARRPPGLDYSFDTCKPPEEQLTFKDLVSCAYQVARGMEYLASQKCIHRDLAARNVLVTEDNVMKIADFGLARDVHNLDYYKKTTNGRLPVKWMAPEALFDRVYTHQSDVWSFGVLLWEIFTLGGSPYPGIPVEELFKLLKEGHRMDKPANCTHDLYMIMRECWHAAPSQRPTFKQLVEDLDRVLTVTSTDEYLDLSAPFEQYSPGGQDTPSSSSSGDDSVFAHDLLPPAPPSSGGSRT
# [15] = test system: c-Abl (mouse); experiment: as above
# [16] = target: FGFR1 (UniProt P11362); experiment: as above
# FGFR1, sequence (P11362 whole entry, looked up, the tested form may be a part): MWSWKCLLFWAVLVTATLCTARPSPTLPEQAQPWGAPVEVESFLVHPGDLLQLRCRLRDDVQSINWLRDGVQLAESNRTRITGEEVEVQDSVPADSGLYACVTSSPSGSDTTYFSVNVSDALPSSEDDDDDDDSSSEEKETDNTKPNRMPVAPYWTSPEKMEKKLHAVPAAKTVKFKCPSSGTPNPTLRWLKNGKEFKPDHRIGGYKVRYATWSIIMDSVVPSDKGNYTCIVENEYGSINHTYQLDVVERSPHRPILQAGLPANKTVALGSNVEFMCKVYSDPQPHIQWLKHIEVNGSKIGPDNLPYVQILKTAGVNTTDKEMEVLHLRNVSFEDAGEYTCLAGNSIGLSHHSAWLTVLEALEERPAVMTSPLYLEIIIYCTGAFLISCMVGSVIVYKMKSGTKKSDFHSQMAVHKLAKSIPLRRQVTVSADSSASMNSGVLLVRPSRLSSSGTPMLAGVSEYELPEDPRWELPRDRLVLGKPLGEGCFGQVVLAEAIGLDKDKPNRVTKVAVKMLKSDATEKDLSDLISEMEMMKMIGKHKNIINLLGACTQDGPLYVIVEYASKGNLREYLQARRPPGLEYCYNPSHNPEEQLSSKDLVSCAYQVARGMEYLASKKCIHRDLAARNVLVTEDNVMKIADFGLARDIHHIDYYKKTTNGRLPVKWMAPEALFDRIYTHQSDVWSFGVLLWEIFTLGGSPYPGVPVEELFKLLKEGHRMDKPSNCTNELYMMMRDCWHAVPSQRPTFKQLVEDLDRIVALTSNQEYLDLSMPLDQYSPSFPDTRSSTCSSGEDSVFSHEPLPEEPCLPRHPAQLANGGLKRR
# 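Throughout, for SH2 binding enrichment of the phosphorylated peptide, bacterial display: peptide library displayed on the E. coli surface as eCPX fusions, selected cells deep-sequenced, score is each peptide's frequency after selection divided by its frequency in the input.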
# 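Throughout, for phosphorylation enrichment, bacterial display: 11-residue human phosphosite peptides and single-mutation variants displayed on the E. coli surface, counted by deep sequencing, each peptide's frequency after selection divided by its frequency in the unselected input library; frequency after pTyr selection over input frequency; kinase dosed for 20-30% of maximal phosphorylation in three min.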
Sequence,SH2 binding enrichment [1],SH2 binding enrichment [2],SH2 binding enrichment [3],phosphorylation enrichment [4],phosphorylation enrichment [5],phosphorylation enrichment [6],phosphorylation enrichment [7],phosphorylation enrichment [8],phosphorylation enrichment [9],phosphorylation enrichment [10],phosphorylation enrichment [11],phosphorylation enrichment [12],phosphorylation enrichment [13],phosphorylation enrichment [14],phosphorylation enrichment [15],phosphorylation enrichment [16]
FSPGSNERETF [NF1_Y2192_Y2192N],0.886,0.662,0.447,0.424,0.856,0.605,0.849,0.484,0.484,0.835,0.538,0.414,0.408,0.583,0.599,0.53
GRLFAYPDTHR [CAT_Y358],0.84,0.909,0.508,0.356,0.756,0.434,0.605,0.397,0.421,0.641,0.476,0.344,0.49,0.538,0.597,0.44
EGNERYEGFCV [GRIA3_Y451_YF],0.74,0.66,1.52,0.479,1.15,0.515,1.01,0.554,0.58,1.12,0.55,0.431,0.662,0.697,0.783,0.649
SYTDPYAQPSL [KMT2D_Y2378_P2382S],0.823,0.775,2.6,0.576,1,0.568,0.718,0.567,0.611,1.18,0.479,0.532,0.583,1.89,0.82,3.11
GFGGGYGGVLT [KRT19_Y65_A60G_YF],1.06,0.999,0.478,0.45,0.696,0.444,0.575,0.488,0.47,0.626,0.492,0.381,0.452,0.522,0.493,0.491
IKNSGYISRYL [EIF2AK3_Y585],1.08,1.01,0.706,0.448,0.711,0.406,0.538,0.33,0.4,0.558,0.376,0.404,0.443,0.531,0.558,0.513
RVFIKYLPEWT [PSEN1_Y240_L235R],1.33,1.19,0.906,0.855,2.8,1.34,1.71,0.944,0.735,2.32,1.02,0.678,1.15,1.32,1.13,0.966
AAFNKYDQERF [CDC73_Y293_R292K_YF],0.867,0.776,0.44,0.414,0.785,0.483,0.599,0.375,0.485,0.692,0.428,0.396,0.401,0.531,0.494,0.412
EYRFIYMAVQH [PTPN11_Y515_Q510E],0.831,0.765,0.556,3.46,1.34,1.02,1.26,4.57,4.15,1.39,3.17,1.29,1.96,1.71,2.02,2.02
KTKIGYSPLHQ [ANK1_Y735_L733I],0.903,0.827,0.398,0.425,0.512,0.449,0.49,0.435,0.408,0.489,0.434,0.466,0.326,0.384,0.456,0.422
LSDGPYSSPYE [EPOR_Y485_N487S],0.808,0.762,3.98,1.09,1.39,0.95,1.2,0.739,0.882,2.3,0.831,0.523,1.2,1.61,1.18,0.421
TFVVLYDAELT [ERCC4_Y581_R576T_YF],1.38,1.73,0.893,0.596,1.61,1.03,1.49,0.568,0.712,1.31,0.669,0.724,1.18,0.92,0.979,0.696
LLKANYELLNA [POLR3A_Y714_K713N],0.834,0.973,1.51,0.814,0.865,0.804,0.857,0.459,0.431,0.975,0.551,0.976,1.28,0.78,0.949,0.457
CYVYYYSYLLK [PTEN_Y178_R173C],0.864,0.543,0.68,1.47,1.81,0.792,1.53,0.949,0.734,1.5,0.669,1.17,1.15,1.79,1.66,1.8
NFRTTCVNANE [KCNH2_Y475_Y475C],0.723,0.536,0.387,0.428,0.955,0.605,0.979,0.483,0.53,0.974,0.464,0.423,0.53,0.619,0.808,0.528
NTGYYYDLYGG [PTPN11_Y63_D61Y],1.33,1.56,5.74,4.67,1.25,10.6,4.73,6.15,5.76,1.73,3.4,8.78,11.3,11.3,0.971,13.9
LMIKEYLTKEL [BAG3_Y457_E455K],1.03,1,0.621,0.353,1.36,0.612,0.896,0.571,0.469,0.867,0.491,0.411,0.524,0.72,0.666,0.437
HSRTRYERNIE [F2_Y434],1.31,1.37,0.752,0.683,0.986,0.531,0.742,0.766,0.465,1.08,1.14,0.763,0.851,0.663,0.929,0.835
WGLRSYFETSK [MAGED2_Y448_YF],1.08,1.53,0.882,0.32,1.08,0.594,1.04,0.489,0.526,0.967,0.42,0.385,0.553,0.645,0.517,0.536
LMLVLYGRIFR [HTR1A_Y215],1.54,1.25,1.42,0.644,1.24,0.958,1.48,0.495,0.715,1.84,0.768,0.475,0.646,0.809,0.791,0.372

# Further lines, with some results ahead:
SH2 binding enrichment [1],SH2 binding enrichment [2],SH2 binding enrichment [3],Sequence,phosphorylation enrichment [4],phosphorylation enrichment [5],phosphorylation enrichment [6],phosphorylation enrichment [7],phosphorylation enrichment [8],phosphorylation enrichment [9],phosphorylation enrichment [10],phosphorylation enrichment [11],phosphorylation enrichment [12],phosphorylation enrichment [13],phosphorylation enrichment [14],phosphorylation enrichment [15],phosphorylation enrichment [16]
1.13,0.93,0.556,VSSPKYGSDDE [TMCC2_Y473],0.619,1.01,0.505,0.926,0.429,0.556,0.968,0.553,0.464,0.559,0.713,0.992,0.46
0.852,0.737,0.829,TEVRRYVLPLN [RPE65_Y368_P363T],0.38,0.887,0.4,0.661,0.407,0.412,0.649,0.514,0.401,0.377,0.785,0.526,0.482
0.838,0.877,1.05,ETKRPYTVILI [SBDS_Y128],0.458,1.15,0.527,1.01,0.481,0.457,1.06,1.16,0.479,0.57,0.722,0.825,0.582
1.15,1.12,0.919,PFGQWYESHFA [RPS8_Y113_R110G_YF],4.21,1.43,4.94,0.907,1.53,1.32,1.3,17.7,4.87,5.8,1.01,0.764,1.01
0.68,0.553,0.409,YRVAGYKTQGG [TIA1_Y383_E384K],0.435,0.461,0.309,0.42,0.366,0.494,0.509,0.363,0.312,0.368,0.376,1.98,0.434
1.09,1.07,1.07,QGIYGYHHHMQ [UFSP2_Y287_Y290H],7.86,0.923,4.59,0.598,9.07,9.98,0.932,10.9,9.93,2.34,0.653,4.62,0.613
1.19,0.739,0.709,WRGMPYGGRGD [TGM1_Y312_R307W],0.419,0.514,0.401,0.482,0.39,0.467,0.548,0.31,0.363,0.34,0.486,0.396,0.388
1.05,0.996,1.19,ADFPDCKFRPR [SOX11_Y116_Y116C_YF],0.465,0.983,0.409,0.965,0.545,0.395,0.783,0.412,0.391,0.488,0.616,0.744,0.532
0.82,0.574,0.485,AEYGLYAAMVR [VSX2_Y222_G223A],4.7,1.4,9.84,1.16,7.14,6.68,1.65,5.05,6.46,8.53,0.895,3.28,0.639
